Reference: patent US20070286806A1, “Methods and Compositions for Modulating a Steroid Receptor” (Mount Sinai Hospital, priority 2004, published 2007)

Test system: PRA and PRB protein
Assay: PR protein level by western blot of whole cell lysate after co-transfection in SHM cells
Type: cell-based
Method: FIG. 5. […] (A) SHM cells were transient transfected (eighteen hours) with PRA or PRB expression vector with or without increasing doses (0.2, 0.5, 1.0 and 2.0 μg) of His-PSF vector as indicated. Whole cell lysate was analyzed by western blot with PR or His tag antibody. NS=non-specific binding. (B) SHM cells were transient transfected (eighteen hours) with PRA or PRB expression vector together with 2.0 μg His tagged PSF1-707 or truncated PSF1-662. Culture media was added with or without 60 nM MG132 (Z-Leu-Leu-Leu-a1) as indicated for another 6 hours. Whole cell lysate was analyzed by western blot with PR or His tag antibody. Gβ protein was also detected as the cell lysate loading control.
For immunoprecipitation of the endogenous PR and PSF, T47D cells cultured in 150 mm dishes were lysed in 800 μl NETN buffer containing 150 mM NaCl plus protease inhibitor cocktail. Cell lysate were then incubated with 5 μg of PR or PSF, or control mouse IgG at 4° C. overnight, followed by the addition of 30 μl of protein A/G PLUS-agarose beads (Santa Cruz) for another two hours at 4° C. Resins were washed with NETN containing 250 mM NaCl and eluted with 1×Laemmli buffer. The eluted proteins along with the whole cell extract were western blotted by PR or PSF antibody. • GST pulldown assay: GST pulldown assay was performed as previously described (20). GST and its fusion proteins were first immobilized to glutathione-Sepharose 4B affinity matrix. The matrix was then incubated at 4° C. overnight with rabbit reticulocyte lysate (Promega) containing PR or His-PSF transcribed and translated in presence of ^35S methionine. The matrix was washed three times with cold NETN buffer before adding 1 ×Laemmli buffer to elute associated proteins. The eluted proteins were separated on 10% SDS-PAGE gel. Gels were treated with Enhancer (NEN, Boston, US) dried and analyzed by autoradiography. • Cell culture and transient transfection: SHM cells and 293T cells were maintained in DMEM plus 5% FCS (Sigma) as described before (22). For experiments involving steroid exposure, the medium was substituted with phenol red free DMEM containing 5% charcoal-treated fetal bovine serum (Hyclone, Utah, USA). Transfection was performed according to manufacturers protocol (Fementas). Cells were seeded at a density to achieve 60-80% confluency the following day. The DNA and transfection reagent were mixed and added to the medium. Cell lysates were collected at least 30 hours after transfection. For luciferase assay, cells were collected in 200 μl of lysis buffer (Promega) of which 10μl was used for the luciferase and β-Gal activity assays respectively. Luciferase activity was determined by using the luciferin reagent (Promega) according to manufacture's protocol. […]

B1: polypyrimidine tract binding protein-associated splicing factor (protein)
chain: MSRDRFRSRGGGGGGFHRRGGGGGRGGLHDFRSPPPGMGLNQNRGPMGPGPGQSGPKPPIPPPPPHQQQQQPPPQQPPPQQPPPHQPPPHPQPHQQQQPPPPPQDSSKPVVAQGPGPAPGVGSAPPASSSAPPATPPTSGAPPGSGPGPTPTPPPAVTSAPPGAPPPTPPSSGVPTTPPQAGGPPPPPAAVPGPGPGPKQGPGPGGPKGGKMPGGPKPGGGPGLSTPGGHPKPPHRGGGEPRGGRQHHPPYHQQHHQGPPPGGPGGRSEEKISDSEGFKANLSLLRRPGEKTYTQRCRLFVGNLPADITEDEFKRLFAKYGEPGEVFINKGKGFGFIKLESRALAEIAKAELDDTPMRGRQLRVRFATHAAALSVRNLSPYVSNELLEEAFSQFGPIERAVVIVDDRGRSTGKGIVEFASKPAARKAFERCSEGVFLLTTTPRPVIVEPLEQLDDEDGLPEKLAQKNPMYQKERETPPRFAQHGTFEYEYSQRWKSLDEMEKQQREQVEKNMKDAKDKLESEMEDAYHEHQANLLRQDLMRRQEELRRMEELHNQEMQKRKEMQLRQEEERRRREEEMMIRQREMEEQMRRQREESYSRMGYMDPRERDMRMGGGGAMNMGDPYGSGGQKFPPLGGGGGIGYEANPGVPPATMSGSMMGSDMRTERFGQGGAGPVGGQGPRGMGPGTPAGYGRGREEYEGPNKKPRF
notes: expressed from transfected His-PSF vector or in vitro translated
- PR proteins after co-transfection with PRB/PRA (after 24 hours): total loss of PR proteins
- level of PRA and PRB protein (increasing dose of PSF expression vector, constant dose of PR vector): decrease
